One block for each binder: values may come before it.
Legend:
[1] = target: T1, E. coli ketosynthase FabF (E. coli, UniProt P0AAI5 1-413); test: cross-linking
T1 sequence: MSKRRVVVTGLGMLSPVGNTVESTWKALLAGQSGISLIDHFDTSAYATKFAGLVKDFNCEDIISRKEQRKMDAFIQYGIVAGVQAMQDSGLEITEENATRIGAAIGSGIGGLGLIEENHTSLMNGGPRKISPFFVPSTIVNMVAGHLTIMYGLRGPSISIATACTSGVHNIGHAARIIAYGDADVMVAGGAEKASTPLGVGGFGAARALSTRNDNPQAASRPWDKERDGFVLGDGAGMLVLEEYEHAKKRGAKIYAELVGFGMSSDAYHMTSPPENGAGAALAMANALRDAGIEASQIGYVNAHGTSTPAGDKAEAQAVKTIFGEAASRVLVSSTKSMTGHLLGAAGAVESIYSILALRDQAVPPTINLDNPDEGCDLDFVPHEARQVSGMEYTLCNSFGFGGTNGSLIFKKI

[2] = target: the molecule itself; test: crystal structure

binding result [1]: binds
B1: ACP loaded with the (Z)-C14Cl chloroacrylate crosslinking probe (crypto-ACP) (natural protein, E. coli)
chain: STIEERVKKIIGEQLGVKQEEVTNNASFVEDLGADSLDTVELVMALEEEFDTEIPDEEAEKITTVQAAIDYINGHQA
modifications: S36 carries the 4'-phosphopantetheine analogue with the (Z)-C14Cl (C14-chloroacrylate) crosslinking probe

B2: E. coli ketosynthase FabB (enzyme)
chain: MKRAVITGLGIVSSIGNNQQEVLASLREGRSGITFSQELKDSGMRSHVWGNVKLDTTGLIDRKVVRFMSDASIYAFLSMEQAIADAGLSPEAYQNNPRVGLIAGSGGGSPRFQVFGADAMRGPRGLKAVGPYVVTKAMASGVSACLATPFKIHGVNYSISSACATSAHCIGNAVEQIQLGKQDIVFAGGGEELCWEMACEFDAMGALSTKYNDTPEKASRTYDAHRDGFVIAGGGGMVVVEELEHALARGAHIYAEIVGYGATSDGADMVAPSGEGAVRCMKMAMHGVDTPIDYLNSHGTSTPVGDVKELAAIREVFGDKSPAISATKAMTGHSLGAAGVQEAIYSLLMLEHGFIAPSINIEELDEQAAGLNIVTETTDRELTTVMSNSFGFGGTNATLVMRKLKD
stoichiometry N [2]: 2
